Positions count from the first letter of the chain named. Names may count otherwise. “And” between values parts separate entries of the source, which are not always exact repeats. Equal entries are not always repeated.
B1: PHGDH-Flag, expressed in PHGDH-KO peritoneal macrophages (enzyme, UniProt Q61753 1-533, looked up)
chain: MAFANLRKVLISDSLDPCCRKILQDGGLQVVEKQNLSKEELIAELQDCEGLIVRSATKVTADVINAAEKLQVVGRAGTGVDNVDLEAATRKGILVMNTPNGNSLSAAELTCGMIMCLARQIPQATASMKDGKWDRKKFMGTELNGKTLGILGLGRIGREVATRMQSFGMKTVGYDPIISPEVAASFGVQQLPLEEIWPLCDFITVHTPLLPSTTGLLNDSTFAQCKKGVRVVNCARGGIVDEGALLRALQSGQCAGAALDVFTEEPPRDRALVDHENVISCPHLGASTKEAQSRCGEEIAVQFVDMVKGKSLTGVVNAQALTSAFSPHTKPWIGLAEAMGTLMHAWAGSPKGTIQVVTQGTSLKNAGTCLSPAVIVGLLREASKQADVNLVNAKLLVKEAGLNVTTSHNPGVPGEQGSGECLLTVALAGAPYQAVGLVQGTTPMLQMLNGAVFRPEVPLRRGQPLLVFRAQPSDPGMLPTMIGLLAEAGVQLLSYQTSMVSDGEPWHVMGLSSLLPSLETWKQHVLEAFQFCF
notes: phosphoglycerate dehydrogenase (PHGDH); also called WT PHGDH; PHGDH-HA (methods); source: PHGDH-KO mouse peritoneal macrophages, transfected 48 h, in lysate
B2: PHGDH (V425M)-Flag, expressed in PHGDH-KO peritoneal macrophages (enzyme, UniProt Q61753 1-533, looked up)
chain: B1 chain with V425M
notes: phosphoglycerate dehydrogenase (PHGDH) with V425M made by site-directed mutagenesis; also called PHGDH (V425M)-HA (methods); source: PHGDH-KO mouse peritoneal macrophages, transfected 48 h, in lysate
B3: PHGDH, endogenous in mouse peritoneal macrophages (enzyme, UniProt Q61753 1-533, looked up)
chain: B1 chain
notes: phosphoglycerate dehydrogenase (PHGDH), endogenous in mouse peritoneal macrophages; Seen as tetramers and dimers after cross-linking of the lysate; also called endogenous PHGDH; source: endogenous, mouse peritoneal macrophage (PM) extract

Key:
[1] = molecular target: the molecule itself; assay: cross-linking; lysate of PHGDH-KO PMs transfected with PHGDH or PHGDH (V425M) for 48 h; 0.25 mM cross-linker (DSS in the legend, dimethyl suberimidate in the methods), room temperature 10 min; Western blot
[2] = molecular target: the molecule itself; assay: cross-linking; lysate of WT PMs (native lysis buffer), untreated or pretreated with 15 μM CBR-5884 for 6 h; 0.25 mM cross-linker (DSS in the legend, dimethyl suberimidate in the methods), room temperature 10 min; Western blot of PHGDH

Row | Protein | stoichiometry N [1] | stoichiometry N [2]
1 | B1 | 4 | 
2 | B2 | 4 and 2 | 
3 | B3 |  | 4 and 2

— article PMC12509985, “Phosphoglycerate dehydrogenase interacts with and inhibits the protein kinase TAK1 to mitigate septic shock” (The Journal of Biological Chemistry, 2025)
